# Experimental data published in paper PMC4135013.
# pKd: −log10 of the molar value.
# What was measured:
# [1] = target: soluble form of recombinant mouse CD16 (sCD16) (mouse); test: ELISA
# [2] = target: soluble form of recombinant mouse CD16 (sCD16) (mouse); test: SPR
pKd [1],pKd [2],Substance
7.05,,OVA-IC (soluble immune complex of OVA and rabbit anti-OVA IgG) (from UniProt P01012 1-386)
,4.60,malondialdehyde-modified low-density lipoprotein (MDALDL)
,7.11,peroxidase/anti-peroxidase immune complex (PAP-IC)
